Measurements reported in the DeepSol protein solubility set.

Assay: soluble on expression in E. coli; label from the status in PepcDB or PDB records

Sequence	soluble on expression in E. coli
MAHHHHHHMERVRYRSSVTRKLIDLYDEVAELYDCRENMRNQVTQAMRIDPRYCKERHGEVRLACKPTLQQQSAVESVENALEGLHDAVHELVAAYLTQEEKRHLGIDTHLFQTSTEKANTYQYAPPPPKPRSSSSNAARRARQKTSAAATFPHPSTRHREVRVEKEEGDAHENTAATAPTPAAPTLTVPVDTPAPQQQPLTNTTTNKKISNSVWDSSAPAASAAFSSAAISLPASSVKLAQQSVVELSQLAAPQQPVTSSSQPLCSSIVHVAAPEKHEDGSGTAAEQKPVAASHTQDTEIAEGTPERVVASAVSASTLSVTWPTDTGAGSTLHLPTGSQPPLATERLLKVPVSSPDALTPIAKTPPAIPPRPTSVQAQAQEPALTSANPTPPPSHPPSQDAVAASCNDASAAKASASQARTAVVGFKRFLIDSDSNSSC	soluble
MGSDKIHHHHHHMYLAYYGFAEKPFQLKPDPNFFFPSRGHKRAAAYLEYGLSQEDGFIIITGDVGAGKTTLMRYLFQKLRQERVAAAQLVSTRLDPDDALRMVAAAFGLSYEGLSKAALLLELERFMRKCERESTRVLLVVDEAQNLLPQTLEELRMLSNFQSDNRPLLQTFLLGQPEFRRTLLGSQMQQLRQRVIATYHLGPLDQAETRAYIEHRLQKAGWNGSPVLQDEIFEVIHNFSAGIPRKINLFCDRLLIMGCLEELQTLGKAEANEVMLDIQKEFDLAVSPE	not soluble
QLLEPIRDFEARKCPVHGKTMELFCQTDQTCICYLCMFQEHKNHSTVTVEEAKAEKETE	soluble
MSASLAILTIGVVPMSEVLPLLTEYIDEQHITHHSLLGKMSREDVMADYAVEPGDDPLLTLLNDNQIAHVSRQKVERDLQSVVEVLDNQGYDVIILMSTAAIKSMAARNSILLEPLRIIPPLVASIVDGHQVGVIVPVAELLAAQEKKWQVLQMPPVYSLANPVHGSEQQLIDAGQALLDQGADVIMLDCLGFHQRHRDILQQALDVPVLLSNVLIARLASELLV	not soluble
MSLSDLPDDIFQIIVKKLGDEDFNHLGPIIRSNKRGRDIGLSREILKSANLMGMCLHPPNIFPGQLFRNFFVRCLEFENATAMYYEAIRLIVREENVMGSLFLLNQLVPTYDYATIAYAFFQMCAGRGDLAGTTFDTIFEQNSVSRWGSIYSFELEVKCEALIDTIMDFQPHFGMTFAPDWKFASSDCLSISECPDWHGVEYFCEGCYIYYVALRILEVL	soluble
MGSDKIHHHHHHMVKMNMSDIDISEPLSDLLAPLNNEQREFLMNNYTIQTYKKNETIYCEGETPSHLMCLITGKVKIFKDGVGGRSQIIRMIKQREYFAYRAYFAKEDFVTAAAAFEPSVICLIPMTAITTLVAQNNDLAMFFIRQLSIDLGISDERTVSLTQKHIRGRLAESLIFLKESYGLEEDGSTLSIYLSREDLANLSNMTTSNAIRTLSQFATERLITIDGRKIKIIEEEKLKKISKIG	not soluble
MAHHHHHHMTDVVEAPRPATVAEAFANTAKALEQFNIERIRVEGLSCKSSITHCRKHDKNNMEKEEDVRTLTEQAFMREFVFQSRPCVIVGALEDWPAMQRWRDDRYLFDLDGHLSRVRRETDDAAAPSSEGTAATGDVAVVPKNNDHDSSDDNTHPREREEEKDGLKRVTVALTPNGRADAVTYVTYQGAREEGRENDVDGKKDNVEEHFIKTEKLFMAAAEIRATLPELYHLLRENPLYPPVRPVFVDLRRPAPVVAYAQMQNNCLEVEYQHLHGDIPPELDRFGERVFGEPHEAANVWFGTPASVSSMHQDWVENLYAVVRGVKEFILLPPWEGVFVPKPELPSAAFSVQRQDGVNGYVFSGTPVHDGLTIPWMDVEFTPAALEDVSLMPTNMQERLHPLVVYVQPGEVLYLPAMWLHRVAQHADDTDRLAREKQLTSSLQSAQDPPLPLIAAVNYWYDMSFTNPAVVMLREFGLLL	soluble
MGSDKIHHHHHHMAKTIRDESTASAYWAAVNTFCALKDVHVIADAPVGCYNLAGVAVMDYTDAIPYLENLTPTSLTEREISSSGSSQIVQETIEKLMGSGKQLILVSSAESEMIGSDHQHMLAMKYPSVRFFASDSLGENEWQGRDRALAWLFDQFDDGQPSQIEPGTVSIIGPTYGCFNSPADLAEVKRLVTGAGGRVAHVYPFESKAAEITKLKNSAAIVVMYREFGAALAEKLGRPVLYAPFGIEETDRFIGKIGRLCGTPEQATRFIAEEKRTTLSPVWDLWRGPQSEWFPTIRFGVVASKSYADGIKHVLGDELGMQCLFSLDSAEVDNNAVRKEIVQKQPQFLYGRMPDKIYLAEADAKSRFIPAGFPGPIVRRALGTPFMGHSGVVWLVQEIVNALYDTLFNFLPITRRQQAAAPTKPLKWTPEANAILDGIVRKAPFISQISFGRELKRKAENLAASRGADTVTPDILQQLG	not soluble
MSAASTTSTPAAAAVAPQQPESLYRVVQTLGEGAFGEVLLIVNTKNPEVAAAMKKINIANKSKDFIDNIRKEYLLQKRVSAVGHDNVIRMIGMRNDPQFYYLFLEYADGGELFDKIEPDCGMSPVFAQFYFKQLICGLKFIHDNDVVHRDIKPENLLLTGTHVLKISDFGMATLYRNKGEERLLDLSCGTIPYAAPELCAGKKYRGPPVDVWSSGIVLIAMLTGELPWDRASDASQSYMGWISNTSLDERPWKKIDVRALCMLRKIVTDKTDKRATIEQIQADPWYQHNFGQVETPNGRPLKRARNNDENITCTQQAECSAKRRHLETPNEKSTLAERQNASFSQPTKTEDLLLTQHIDMSQTNSNLLQRMVCRMTRFCVVTDIRSTYQKVARASEHAGFGVRETDDYRLLVTWREVSMMVSLYTMGDIPDKPRVMVDFRRSRGDGIQFKKMFMDVRNRMHEWICTDGNNWLANLGYVPRNPQIVNGGGVNVEHSASSINVDV	not soluble
MGSDKIHHHHHHMMVNESADQLYSFALLDEDAKREIRRSLLKAVALPGHLIPFASRDLPIARGWGTGGLQITLSIITPDDTLKVIDQGDDESVNAVNLRRLIHRTTGVATTTDTAAASLIQTRHRIPEEPLRADQILVLQVPMADPLRWVEPSLERAITMHGETDYGKMWVYLYESVVRAGDLRIASQYPVIVNHRYMMDTTPIPRWDVPKLHMAETLYLFGAGREKRIYAVPPHTPVEPLQFEDYPFRTEYRPGQRCARCGAENTFLTSHFVADANGGRWEMTCSDVAFCAKRQGEQRDR	not soluble
MFSIFMRIPDTAQVDAVFSGAYASIEQGLCYDEVNDWENTLAMYEKGLNLIVEGEKMKNARKSEMWKMLQESKSSVQHRINVLKKEGPKQPTPKKIKEAEESVENEKEAIRMQLDSFGSQEADLIYFLPEGVQLFTIDGEKTTAPTAPTSLQILRFPQPTDGGASSDTLAFMQVGPWAYPLMGAKTPVLRNEFGAYLVANPTPENPNMTVAILLSSDIERRLIEELHIVLREFTDFKEQAEPSTELSKEEKNRISTTISNFLIKGGQKIAWGVETTTVRVISRVEDNGEQYRTTLIATDKPMQVSPVIKGSVVYMHKGTKTVAKCTRYLLDKIGDMGVSMGKKLADSAQRRFGDGKSGGLVSGTIEILGGGITGVATVWMSLEDGSRHLCRSIANQTVQNVKLKYGDDASDTTHHALFAAGHGTLAAAQLWDLGPRSVAGRMARKAGIQMVSDLHHSRKGSRLDQEVPALELKKAV	not soluble
MAHHHHHHMPGIKIEEVISTTKRQRVAAHSHVKGLGLDADGSAKPSADGFVGQVKAREAAGIVVELTRSKKMAGRALLFAGPPGTGKTALALGIAKELGPKVPFCPMVGSEVYSAEVKKTEVLMENFRRAIGLRIKEQKEVYEGEVTELRAEETDNPLGGYGKSIAHVIVTLKSVKGSKQLKLDAAIYESLEKEKVSVGDVIYIEASTGAVKRVGRSDAYIGDHDLEADEYVPLPKGDVHKKKEIIQDVTLHDLDSANAKPNQGQDALSIVNSLMKQKKTEITEKLRHEINKVVNKYIDQGVAELVPGVLFIDEVHMLDIECFTFLNKALESTLAPVVIFATNRGSCRIRGTDIRSPHGIPTDLLDRLLIVRTTNYSIEEIVSIVDIRSQVEGVKVSDASLELLGQIGERTSLRYVVQLLTPALIIAETNGRTVIEAEDVMLVDGLFKDAKASAQLLHEHADEYVYQ	not soluble
MASNEVLVLRGTLEGHNGWVTSLATSAGQPNLLLSASRDKTLISWKLTGDDQKFGVPVRSFKGHSHIVQDCTLTADGAYALSASWDKTLRLWDVATGETYQRFVGHKSDVMSVDIDKKASMIISGSRDKTIKVWTIKGQCLATLLGHNDWVSQVRVVPNEKADDDSVTIISAGNDKMVKAWNLNQFQIEADFIGHNSNINTLTASPDGTLIASAGKDGEIMLWNLAAKKAMYTLSAQDEVFSLAFSPNRYWLAAATATGIKVFSLDPQYLVDDLRPEFAGYSKAAEPHAVSLAWSADGQTLFAGYTDNVIRVWQVMTAN	soluble
